Test results: article PMC7235047

Target: γH2AX, P16104
Experiment: proximity ligation assay (PLA)
Details: chain shown with the change, U2OS cells transfected with GFP-RNF168 wildtype and mutants, antibodies against GFP and γH2AX, 75 (wildtype), parent: est. 43, read off a plot

| response (n = 53 cells (R57D/Δ143-144)) | response (n = 74 cells (Δ143-144)) | Binder |
| --- | --- | --- |
| 11 |  | GFP-RNF168 wildtype, Q8IYW5 R57D; E143del; E144del (protein) MALPKDAIPSLSECQCGICMEILVEPVTLPCNHTLCKPCFQSTVEKASLCCPFCRRDVSSWTRYHTRRNSLVNVELWTIIQKHYPRECKLRASGQESEEVADDYQPVRLLSKPGELRREYEEEISKVAAERRASEEEENKASYIQRLLAEEEEEEKRQAEKRRRAMEEQLKSDEELARKLSIDINNFCEGSISASPLNSRKSDPVTPKSEKKSKNKQRNTGDIQKYLTPKSQFGSASHSEAVQEVRKDSVSKDIDSSDRKSPTGQDTEIEDMPTLSPQISLGVGEQGADSSIESPMPWLCACGAEWYHEGNVKTRPSNHGKELCVLSHERPKTRVPYSKETAVMPCGRTESGCAPTSGVTQTNGNNTGETENEESCLLISKEISKRKNQESSFEAVKDPCFSAKRRKVSPESSPDQEETEINFTQKLIDLEHLLFERHKQEEQDRLLALQLQKEVDKEQMVPNRQKGSPDEYHLRATSSPPDKVLNGQRKNPKDGNFKRQTHTKHPTPERGSRDKNRQVSLKMQLKQSVNRRKMPNSTRDHCKVSKSAHSLQPSISQKSVFQMFQRCTK |
|  | 34 | GFP-RNF168 wildtype, Q8IYW5 E143del; E144del (protein) MALPKDAIPSLSECQCGICMEILVEPVTLPCNHTLCKPCFQSTVEKASLCCPFCRRRVSSWTRYHTRRNSLVNVELWTIIQKHYPRECKLRASGQESEEVADDYQPVRLLSKPGELRREYEEEISKVAAERRASEEEENKASYIQRLLAEEEEEEKRQAEKRRRAMEEQLKSDEELARKLSIDINNFCEGSISASPLNSRKSDPVTPKSEKKSKNKQRNTGDIQKYLTPKSQFGSASHSEAVQEVRKDSVSKDIDSSDRKSPTGQDTEIEDMPTLSPQISLGVGEQGADSSIESPMPWLCACGAEWYHEGNVKTRPSNHGKELCVLSHERPKTRVPYSKETAVMPCGRTESGCAPTSGVTQTNGNNTGETENEESCLLISKEISKRKNQESSFEAVKDPCFSAKRRKVSPESSPDQEETEINFTQKLIDLEHLLFERHKQEEQDRLLALQLQKEVDKEQMVPNRQKGSPDEYHLRATSSPPDKVLNGQRKNPKDGNFKRQTHTKHPTPERGSRDKNRQVSLKMQLKQSVNRRKMPNSTRDHCKVSKSAHSLQPSISQKSVFQMFQRCTK |
